According to patent US20250195685A1 (CAPSTAN THERAPEUTICS, published 2025):

What was measured:
[1] = biological target: T1, human CD8αα homodimer, recombinant protein (Acro Biosystems) (human, UniProt P01732 22-182); assay: BLI kinetics, Fab, 37 °C
T1 construct: also called CD8αα antigen; biotinylated CD8α recombinant protein (CDA-H82E3)
Experimental: (§1) Biolayer interferometry kinetic assays were performed using a GatorBio Gator Plus BLI system. Kinetic buffer containing PBS plus 0.1% Tween 20 and 0.2% BSA was used for calculating the baseline. To measure the binding kinetics of anti-CD8α antibody fragment (Fab), streptavidin-immobilized SA-XT sensors (#160029, Gator Bio) were prehydrated in the kinetic buffer and loaded with […] biotinylated CD8α recombinant protein (CDA-H82E3, Acro Biosystems) at a spin speed of 400 rpm to a threshold response of 10 nm. The sensors were then incubated in the kinetic buffer for 300 s to acquire a baseline measurement prior to each association. […] The antigen-loaded sensors were incubated in the diluted solutions to capture Fab fragments for 300 s to record the association phase. Sensors were finally incubated in the kinetic buffer for 900 s to record the dissociation phase. The spin speed for all steps except the antigen loading step was 1000 rpm. The temperature of the performed assays was either 30° C. or 37° C. during the association and dissociation phases. Sensor data were baseline subtracted, and global curve fitting of the kinetic data from six different analyte concentrations at a 1:1 monovalent binding model was performed using GatorOne software (version v2.10) to determine kinetic rate constants (kₒₙ and koff) and equilibrium dissociation constants (KD) of the analyzed antibodies.
(§2) The binding kinetics of CBD1033 Fab and its parental CBD1017ch Fab against human CD8αα homodimer, human CD8αβ heterodimer, and cynomolgus macaque CD8ααhomodimer were assessed following the same method in BLI evaluation of humanized Fab variants. For evaluating the binding kinetics against cynomolgus macaque CD8αβ heterodimer protein, the antigen protein was directly coupled onto amine-reactive biosensor tips (Gator Bio) following the manufacturer protocol. Briefly, the sensors were activated for 300 s with a mixture of 1-ethyl-3-(3-dimethylaminopropyl)carbodiimide hydrochloride (EDC) (ThermoFisher Scientific) and 10 mM N-Hydroxysulfosuccinimide sodium salt (sulfo-NHS) (Sigma-Aldrich) in water.

[2] = biological target: T2, human CD8αβ heterodimer, recombinant protein (human, UniProt P01732 22-182; P10966 22-170, limits assumed); assay: BLI kinetics, Fab, 37 °C
T2 sequence (P01732 22-182 limits assumed, chain 1 of 2): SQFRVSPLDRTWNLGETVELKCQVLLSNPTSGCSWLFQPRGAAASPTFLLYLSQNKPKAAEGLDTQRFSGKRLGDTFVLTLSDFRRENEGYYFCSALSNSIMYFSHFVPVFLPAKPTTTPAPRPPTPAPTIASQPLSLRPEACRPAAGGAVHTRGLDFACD
T2 sequence (P10966 22-170 limits assumed, chain 2 of 2): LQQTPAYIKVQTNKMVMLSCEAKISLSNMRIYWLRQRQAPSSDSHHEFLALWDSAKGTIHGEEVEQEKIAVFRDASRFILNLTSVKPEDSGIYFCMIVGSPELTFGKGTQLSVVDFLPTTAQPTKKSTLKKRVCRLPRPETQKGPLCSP
Experimental: as §1, §2

[3] = biological target: T1, human CD8αα homodimer, recombinant …; assay: BLI kinetic sensorgram, 1:1 global fit, 30 °C
Experimental: (§3) The global fitting was performed with a 1:1 fitting model using GatorOne software as described below.
as §1

[4] = biological target: T3, cynomolgus macaque CD8αα homodimer, recombinant protein (cynomolgus macaque); assay: BLI kinetics, Fab, 37 °C as printed in the table
T3 construct: also called cynomolgus CD8αα homodimer
Experimental: as §1, §2

[5] = biological target: T1, human CD8αα homodimer, recombinant …; assay: BLI kinetic sensorgram, 1:1 global fit, 37 °C [CONT'ED]
Experimental: as §3, §1

[6] = biological target: T4, cynomolgus macaque CD8αβ heterodimer, recombinant protein (cynomolgus macaque); assay: BLI kinetics, Fab, antigen amine-coupled to the sensor, 30 °C
T4 construct: In BLI coupled directly to amine-reactive sensor tips; also called cynomolgus CD8αβ heterodimer
Experimental: The binding kinetics of CBD1033 Fab and its parental CBD1017ch Fab against human CD8αα homodimer, human CD8αβ heterodimer, and cynomolgus macaque CD8ααhomodimer were assessed following the same method in BLI evaluation of humanized Fab variants. For evaluating the binding kinetics against cynomolgus macaque CD8αβ heterodimer protein, the antigen protein was directly coupled onto amine-reactive biosensor tips (Gator Bio) following the manufacturer protocol. Briefly, the sensors were activated for 300 s with a mixture of 1-ethyl-3-(3-dimethylaminopropyl)carbodiimide hydrochloride (EDC) (ThermoFisher Scientific) and 10 mM N-Hydroxysulfosuccinimide sodium salt (sulfo-NHS) (Sigma-Aldrich) in water. The cynomolgus macaque CD8αβ protein diluted to […] in 10 mM sodium acetate buffer, pH 6.0, was allowed to be covalently captured for 300 s to an approximate threshold of 5 nm, and the sensors were subsequently deactivated with 1 M ethanolamine (ETA) (Sigma-Aldrich) solution, pH 8.5, for 300 s. The sensors were then rinsed in the kinetic buffer for 600 s. The rinse step was repeated for an additional 120 s for baseline calculation prior to the measurements of the binding kinetics. The antibody fragment was diluted into kinetic buffer via 3-fold dilution at concentrations ranging from 1000 nM to 1.37 nM. As above, the antigen-captured sensors were incubated in the diluted solutions to capture the Fab fragments for 1200 s to record the association phase. Sensors were subsequently incubated in the kinetic buffer for 1200 s to record the dissociation phase. The shaking speed for all steps was 1000 rpm and the temperature of the performed assays were at 30° C. The kinetic parameters were determined with 1:1 monovalent (Langmuir) binding model using the previous method.

[7] = biological target: T1, human CD8αα homodimer, recombinant …; assay: BLI kinetic assay (told in the description; antigen not given)
Experimental: as §1, §2

[8] = biological target: T2, human CD8αβ heterodimer, recombinant …; assay: as above
Experimental: as §1, §2

[9] = biological target: T3, cynomolgus macaque CD8αα homodimer, …; assay: as above
Experimental: as §1, §2

[10] = biological target: T4, cynomolgus macaque CD8αβ heterodimer, …; assay: as above
Experimental: as §1, §2

[11] = biological target: T1, human CD8αα homodimer, recombinant …; assay: BLI kinetic rate analysis, Fab fragment (temperature not given)
Experimental: as §1

[12] = biological target: T1, human CD8αα homodimer, recombinant …; assay: BLI kinetics, F(ab) on biotinylated CD8α (SA-XT sensor), 1:1 fit, 30 °C
Experimental: as §1

[13] = biological target: T1, human CD8αα homodimer, recombinant …; assay: BLI kinetics, F(ab) on biotinylated CD8α (SA-XT sensor), 1:1 fit, 37 °C [CONT'ED]
Experimental: as §1

[14] = biological target: T3, cynomolgus macaque CD8αα homodimer, …; assay: BLI kinetic sensorgram, 1:1 global fit (legend: 30 °C; FIG. 2I prints 37 °C for the same constants)
Experimental: as §1, §2

T1 sequence (P01732 22-182 limits assumed): as the sequence (P01732 22-182 limits assumed, chain 1 of 2) above

Kd [1]: 5.5 nM | koff [1]: 0.000194 s⁻¹ | kon [1]: 35400 M⁻¹ s⁻¹ | Kd [2]: 26.2 nM | koff [2]: 0.000653 s⁻¹ | kon [2]: 25000 M⁻¹ s⁻¹ | Kd [3]: 3.25 nM | koff [3]: 0.000145 s⁻¹ | kon [3]: 44700 M⁻¹ s⁻¹ | Kd [4]: 10.4 nM | koff [4]: 0.000264 s⁻¹ | kon [4]: 25400 M⁻¹ s⁻¹ | Kd [5]: 5.5 nM | koff [5]: 0.000194 s⁻¹ | kon [5]: 35400 M⁻¹ s⁻¹ | Kd [6]: 119 nM | koff [6]: 0.00199 s⁻¹ | kon [6]: 16700 M⁻¹ s⁻¹ | fold weaker binding affinity than CBD1017ch F(ab) [7]: 5 fold | fold weaker binding affinity than CBD1017ch F(ab) [8]: 5 fold | fold weaker binding affinity than CBD1017ch F(ab) [9]: 5 fold | fold weaker binding affinity than CBD1017ch F(ab) [10]: 5 fold | Kd [11]: 5.5 nM | koff [11]: 0.000195 s⁻¹ | kon [11]: 35400 M⁻¹ s⁻¹ | Kd [12]: 3.25 nM | koff [12]: 0.000145 s⁻¹ | kon [12]: 44700 M⁻¹ s⁻¹ | Kd [13]: 5.5 nM | koff [13]: 0.000194 s⁻¹ | kon [13]: 35400 M⁻¹ s⁻¹ | Kd [14]: 10.4 nM | koff [14]: 0.000264 s⁻¹ | kon [14]: 25400 M⁻¹ s⁻¹
B1: CBD1033 Fab (h1017-H2 / h1017-L2) (Fab, V domains shown)
VH: QVQLVQSGAEVKKPGASVKVSCKASRYTFTDYNLHWVRQAPGQGLEWMGFIYPYNGGTGYAQKFQGRVTMTVDTSTSTAYMELSSLRSEDTAVYYCARDHRYNEGVSFDYWGQGTTVTVSS
VL: DIQLTQSPSSLSASVGDRATITCRASESVDGFGNSFMNWYQQKPGKAPKLLIYLASNLESGVPSRFSGSGSGTDFTLTISSVQPEDFATYYCQQNNEDPYTFGQGTKLEIK
notes: Expressed as F(ab) fragment; also called CBD1033 Fab molecule
